Like-named read-outs stand apart in the source and are kept apart here.
Assays:
[1] = target: T1, monkey CD3ε-his (Cat #: 90047-C08H, SinoBiological, China) (monkey, UniProt Q95LI5 22-117); test: ELISA: plate coated with monkey CD3ε-his, antibody titrated, HRP goat anti-human IgG, OD 450
T1 construct: Bought protein; also called monkey CD3ε protein; recombinant monkey CD3ε
T1 sequence: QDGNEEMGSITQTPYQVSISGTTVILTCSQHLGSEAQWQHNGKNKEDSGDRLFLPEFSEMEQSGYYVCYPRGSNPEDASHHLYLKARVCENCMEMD

[2] = target: T2, human TCR/CD3 complex on cell surfaces (primary human CD4+ T cells; Jurkat cells; human PBMCs) (human, UniProt P07766 23-207); test: FACS on primary human CD4+ T cells, PE goat anti-human IgG, MFI
T2 construct: whole, on cells; Native complex on cells; the γ, δ, ζ and TCR chains of the complex are present on the cells too; also called human CD3 complexes on cell surfaces; human CD3+ T cells

[3] = target: T3, human CD3ε-his (Cat #:10977-H08s, SinoBiological, China) (human, UniProt P07766 23-126); test: ELISA: plate coated with human CD3ε-his, antibody titrated, HRP goat anti-human IgG, OD 450
T3 construct: Bought protein; also called human CD3ε protein; recombinant human CD3ε; not shown: his tag

[4] = target: T3, human CD3ε-his (Cat #:10977-H08s, …); test: as above; remark: listed apart in the source
[5] = target: T3, human CD3ε-his (Cat #:10977-H08s, …); test: SPR (BIAcore 8K); human CD3ε-his coupled to CM5 chip, antibody injected
[6] = target: T1, monkey CD3ε-his (Cat #: 90047-C08H, …); test: ELISA: plate coated with monkey CD3ε-his, antibody titrated, HRP goat anti-human IgG, OD 450; remark: listed apart in the source

T3 sequence (P07766 23-126 limits assumed): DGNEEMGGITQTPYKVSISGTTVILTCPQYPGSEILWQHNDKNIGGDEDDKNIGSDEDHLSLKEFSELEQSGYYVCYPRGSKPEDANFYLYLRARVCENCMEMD
T2 sequence (P07766 23-207, one chain of several): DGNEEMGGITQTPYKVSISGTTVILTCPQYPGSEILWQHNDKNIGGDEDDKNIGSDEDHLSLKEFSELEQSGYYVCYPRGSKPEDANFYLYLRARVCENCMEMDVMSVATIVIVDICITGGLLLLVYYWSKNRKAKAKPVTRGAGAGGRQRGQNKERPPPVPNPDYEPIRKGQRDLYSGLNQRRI

B1: chimeric anti-CD3 antibody CD3-19 (full length, human IgG1) (antibody, V domains shown)
VH: EVKLLESGGGLVQPKGSLKLSCAASGFTFNSYAMNWVRQAPGKGLEWVARIRSKYNNYATYYADSVKDRFTISRDDSQSILYLQMNNLKTEDTAMYYCVRHGNFGNSYLSYWAYWGQGTLVTVSA
VL: QAVVTQESALTTSPGETVTLTCDSSTGAVTTSNYANWVQEKPDHLFTGLIGGTQRSAPGVPARFSGSLIGDKAALTITGAQTEDEAIYFCVLWYSNLWVFGGGTKLTVLG
notes: also called chimeric CD3-19 antibody; parent antibody
- EC50 (read off the curve) [1]: ~0.05 µg/mL
- EC50 (read off the curve) [2]: ~0.7 µg/mL
- EC50 (read off the curve) [3]: ~0.05 µg/mL
- EC50 (read off the curve) [4]: ~0.05 µg/mL
- kon [5]: 119000 M⁻¹ s⁻¹
- EC50 (read off the curve) [6]: ~0.06 µg/mL

Reference: patent publication US20220195043A1 (BEIJING MABWORKS BIOTECH, published 2022)
